B3: VapC3 toxin (natural protein)
chain: MRASPTSPPEQVVVDASAMVDLLARTSDRCSAVRARLARTAMHAPAHFDAEVLSALGRMQRAGALTVAYVDAALEELRQVPVTRHGLSSLLAGAWSRRDTLRLTDALYVELAETAGLVLLTTDERLARAWPSAHAIG

“And” between values parts separate entries of the source, which are not always exact repeats. Identical values can stand only once.

Data set [1] deals with B3. Briefly: SEC-MALS.
The target of data set [2] is T1, VapC35 toxin (M. tuberculosis, UniProt P9WF67 1-135).
T1 sequence: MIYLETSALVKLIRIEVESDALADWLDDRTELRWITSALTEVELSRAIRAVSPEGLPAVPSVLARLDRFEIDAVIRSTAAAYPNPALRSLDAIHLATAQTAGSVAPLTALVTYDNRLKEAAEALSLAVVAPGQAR
The experiment in a line: SEC-MALS.

The target of data set [3] is B3. The experiment in a line: MST.
Data set [4] addresses T1, VapC35 toxin. The experiment in a line: MST.
Data set [5] deals with the molecule itself. The experiment in a line: SEC-MALS.

B1: VapB3 antitoxin (natural protein)
chain: MLSRRTKTIVVCTLVCMARLNVYVPDELAERARARGLNVSALTQAAISAELENSATDAWLEGLEPRSTGARHDDVLGAIDAARDEFEA
As for B1, the “stoichiometry N” value in data set [1] is 0.5 antitoxin chains per toxin chain (2:4) and 1 antitoxin chains per toxin chain (4:4); in data set [2], 0.5 antitoxin chains per toxin chain (2:4) and 1 antitoxin chains per toxin chain (4:4). Also, the Kd was ~7 nM in data set [3] and ~14 nM in data set [4].

B2: VapB35 antitoxin (natural protein)
chain: MNEVSIRTLNQETSKVLARVKRGEEINLTERGKVIARIIPASAGPLDSLISTGSVQPARVHGPAPRPTIPMRGGLDSGTLLERMRAEERY
Take B2: the “stoichiometry N” value in data set [2] was 0.5 antitoxin chains per toxin chain (2:4) and 1 antitoxin chains per toxin chain (4:4). In data set [4], this molecule had a dissociation constant Kd of 1 nM.

Consider B3, for which the “stoichiometry N” value in data set [5] came out at 2 subunits.

The record behind these values is PMC11868609 (Communications Biology, 2025).
